The source of these data is patent US20210238275A1 (published 2021).

One may read the EC50 as the concentration that produces a half-maximal response. High values mean a need for much substance, low ones an effect from little substance.

This assay deals with cell surface, glycophosphatidylinositol (GPI)-linked human FcRn on HEK 293 cells (human, UniProt P55899 24-297, C-terminal engineered GPI linkage). The assay is described as follows: IgG competition on 293 cell surface; pH 6.0.

B1: N026 (antibody)
heavy: not shown
light: QSALTQPASVSGSPGQSITISCTGTGSDVGSYNLVSWYQQHPGKAPKLMIYGDSERPSGVSNRFSGSKSGNTASLTISGLQAEDEADYYCSSYAGSGIYVFGTGTKVTVLGQPKAAPSVTLFPPSSEELQANKATLVCLISDFYPGAVTVAWKADSSPVKAGVETTTPSKQSNNKYAASSYLSLTPEQWKSHKSYSCQVTHEGSTVEKTVAPTECS
On to B1, for which the concentration giving a half-maximal response (EC50) was determined as 3.24 nM.

B2: N024 (antibody)
heavy: not shown
light: QSALTQPASVSGSPGQSITISCTGTGSDVGSYNLVSWYQQHPGKAPKLMIYGDSERPSGVSNRFSGSKSGNTASLTISGLQAEDEADYYCSSYAGSGIYVFGTGTKVTVLGQPKAAPSVTLFPPSSEELQANKATLVCLISDFYPGAVTVAWKADSSPVKAGVETTTPSKQSNNKYAASSYLSLTPEQWKSHKSYSCQVTHEGSTVEKTVAPTECS
In turn, B2 had an EC50 of 2.48 nM. The EC50 values of the last two molecules are within 1.5-fold of each other.

B3: N022 (antibody)
heavy: not shown
light: QSALTQPASVSGSPGQSITISCTGTGSDVGSYNLVSWYQQHPGKAPKLMIYGDSERPSGVSNRFSGSKSGNTASLTISGLQAEDEADYYCSSYAGSGIYVFGTGTKVTVLGQPKAAPSVTLFPPSSEELQANKATLVCLISDFYPGAVTVAWKADSSPVKAGVETTTPSKQSNNKYAASSYLSLTPEQWKSHKSYSCQVTHEGSTVEKTVAPTECS
B3 returned an EC50 of 2.93 nM.

B4: N027 (antibody)
heavy: not shown
light: QSALTQPASVSGSPGQSITISCTGTGSDVGSYNLVSWYQQHPGKAPKLMIYGDSERPSGVSNRFSGSKSGNTASLTISGLQAEDEADYYCSSYAGSGIYVFGTGTKVTVLGQPKAAPSVTLFPPSSEELQANKATLVCLISDFYPGAVTVAWKADSSPVKAGVETTTPSKQSNNKYAASSYLSLTPEQWKSHKSYSCQVTHEGSTVEKTVAPTECS
In turn, B4 registered a half-maximal effective concentration (EC50) of 3.25 nM.

B5: N023 (antibody)
heavy: not shown
light: QSALTQPASVSGSPGQSITISCTGTGSDVGSYNLVSWYQQHPGKAPKLMIYGDSERPSGVSNRFSGSKSGNTASLTISGLQAEDEADYYCSSYAGSGIYVFGTGTKVTVLGQPKAAPSVTLFPPSSEELQANKATLVCLISDFYPGAVTVAWKADSSPVKAGVETTTPSKQSNNKYAASSYLSLTPEQWKSHKSYSCQVTHEGSTVEKTVAPTECS
The molecule B5 gave a concentration for a half-maximal effect (EC50) of 2.48 nM.
